Data taken from patent US7125658B2, “Small protein that interacts with a ribonucleotide reductase subunit and uses thereof” (The Trustees of Columbia University in the City of New York, priority 1998, dated 2006).

T1: Recombinant yeast Rnr1 protein (large subunit of ribonucleotide reductase) (yeast (Saccharomyces cerevisiae), UniProt P21524 1-888)
T1 construct: It is in monomer/dimer/tetramer equilibrium depending on dTTP; also called yeast R1 protein
T1 sequence (looked up): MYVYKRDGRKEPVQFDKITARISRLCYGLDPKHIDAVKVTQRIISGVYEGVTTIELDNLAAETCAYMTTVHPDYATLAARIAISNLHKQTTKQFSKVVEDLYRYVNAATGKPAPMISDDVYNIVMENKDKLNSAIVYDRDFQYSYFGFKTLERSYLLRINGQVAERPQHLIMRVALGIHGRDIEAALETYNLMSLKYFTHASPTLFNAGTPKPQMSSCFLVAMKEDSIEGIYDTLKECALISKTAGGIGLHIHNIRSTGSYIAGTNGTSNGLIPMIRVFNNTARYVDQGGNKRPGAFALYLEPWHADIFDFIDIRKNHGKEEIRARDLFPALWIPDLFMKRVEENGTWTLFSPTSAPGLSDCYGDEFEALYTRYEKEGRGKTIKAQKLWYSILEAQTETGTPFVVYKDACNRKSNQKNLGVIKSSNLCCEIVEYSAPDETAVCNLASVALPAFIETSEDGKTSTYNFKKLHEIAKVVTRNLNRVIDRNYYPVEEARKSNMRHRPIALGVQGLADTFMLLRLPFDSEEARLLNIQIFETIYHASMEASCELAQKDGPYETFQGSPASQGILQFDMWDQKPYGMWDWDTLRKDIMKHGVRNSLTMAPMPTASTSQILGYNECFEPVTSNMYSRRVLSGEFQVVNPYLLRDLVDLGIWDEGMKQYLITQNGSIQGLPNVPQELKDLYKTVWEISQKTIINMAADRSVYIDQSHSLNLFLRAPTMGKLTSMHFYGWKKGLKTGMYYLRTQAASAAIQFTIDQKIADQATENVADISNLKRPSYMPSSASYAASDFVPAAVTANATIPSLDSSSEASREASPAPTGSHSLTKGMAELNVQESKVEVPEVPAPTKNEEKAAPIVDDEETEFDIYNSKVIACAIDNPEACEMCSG

T2: yeast RNR (Saccharomyces cerevisiae, UniProt P21524)
T2 construct: made in house; host or cells: E. coli BL21 (DE3), pET3a
T2 sequence (P21524 1-888): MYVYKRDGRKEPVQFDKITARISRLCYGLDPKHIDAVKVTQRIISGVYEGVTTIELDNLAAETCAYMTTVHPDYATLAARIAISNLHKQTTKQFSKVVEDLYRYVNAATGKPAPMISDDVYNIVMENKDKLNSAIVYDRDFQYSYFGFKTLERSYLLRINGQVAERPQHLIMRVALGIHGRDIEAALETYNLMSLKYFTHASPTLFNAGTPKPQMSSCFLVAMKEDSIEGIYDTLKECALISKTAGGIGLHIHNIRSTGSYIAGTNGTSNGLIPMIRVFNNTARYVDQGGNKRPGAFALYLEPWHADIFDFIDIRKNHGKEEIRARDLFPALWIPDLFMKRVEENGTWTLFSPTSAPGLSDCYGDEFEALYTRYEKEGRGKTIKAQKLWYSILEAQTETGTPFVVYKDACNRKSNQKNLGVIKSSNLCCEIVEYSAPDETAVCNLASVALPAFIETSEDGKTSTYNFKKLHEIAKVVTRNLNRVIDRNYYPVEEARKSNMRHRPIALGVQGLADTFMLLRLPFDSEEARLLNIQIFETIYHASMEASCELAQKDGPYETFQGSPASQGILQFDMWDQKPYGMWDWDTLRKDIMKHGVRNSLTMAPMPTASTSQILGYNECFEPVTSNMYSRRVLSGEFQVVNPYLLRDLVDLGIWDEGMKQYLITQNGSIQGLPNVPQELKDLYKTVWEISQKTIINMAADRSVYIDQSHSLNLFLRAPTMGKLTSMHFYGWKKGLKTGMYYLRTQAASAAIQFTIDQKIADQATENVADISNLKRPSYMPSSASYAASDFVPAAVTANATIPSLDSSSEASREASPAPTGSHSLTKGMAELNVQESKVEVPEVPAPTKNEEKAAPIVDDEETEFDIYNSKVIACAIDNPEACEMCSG


How the values were obtained:
[1] = target: T1, Recombinant yeast Rnr1 protein (large …); assay: BIAcore SPR, BIAevaluation software, lower curves of FIG. 12A; kinetic fit (BIAevaluation), lower curves of FIG. 12A
Description: In this figure, the bulk effect response of around 60 RU has been subtracted.
BIAcore biosensor analysis. The interaction between Sml1p and either yeast Rnr1p or mouse R1 protein was studied by biosensor analysis using the BIAcore method (Biacore AB). The Sml1 protein was prepared in 10 mM sodium acetate, pH 5.2, at a concentration of 0.44 mg/ml; it was then immobilized on the dextran layer of the sensor chip as described previously for the mouse R2 protein (17). The ligand proteins were equilibrated with running buffer (10 mM Hepes-KOH, pH 7.4, 200 mM potassium acetate, 1 mM EDTA, 5 mM magnesium acetate and 0.05% Surfactant P20 (BIAcore). The interactions were studied at a constant temperature of 22° C. and a constant flow of 5 μl/min. Kinetics for the interaction of Sml1p with yeast Rnr1p was determined by allowing the immobilized Sml1p to interact with increasing concentrations of Rnr1p (18). The resonance unit (RU) is proportional to the mass, and 1 RU corresponds to a surface concentration of 1 pg of protein/mm² of the 100 nm thick dextran layer (19).
In control experiments, where the same series of Rnr1p solutions passed a sensor chip without immobilized Sml1p, a "bulk effect" gave a response of only about 60 RU. […] Calculating the equilibrium dissociation constant from these rate constants gave a K_0 of about 0.25 µM, which is close to the directly determined K_0.

[2] = target: T1, Recombinant yeast Rnr1 protein (large …); assay: cell-based or functional assay
yeast RNR = target: T2, yeast RNR; assay: in vitro yeast ribonucleotide reductase CDP reduction assay; assay type: biochemical
Description: FIG. 9 Inhibition of yeast RNR by Sml1p. A series of tubes containing yeast RNR ([…]) were incubated at 30° C. for 30 min in a final volume of 50 μl: 25 nmol of [^3H]CDP (specific activity 37000 cpm/nmol), 2 μmol of Tris-HCl, pH 7.6, 0.125 μmol of ATP, 0.32 μmol of MgCl^2, 0.5 μmol of dithiothreitol, 5 μmol of KCl and 1 nmol of FeCl3. In addition, the tubes contained increasing amounts of Sml1p. After incubation, the samples were processed as described earlier to obtain the amount of dCDP formed (22).
FIG. 10 Inhibition of yeast RNR by nonapeptides corresponding to the C terminal ends of Sml1p, Rnr2p or Rnr4p. […] 9 in the presence of increasing amounts of nonapeptide. Sml1 peptide, ã; Rnr2 peptide, o; Rnr4 peptide, x.
Inhibition of yeast ribonucleotide reductase by the Sml1 protein. Recombinant yeast ribonucleotide reductase was assayed for activity using a CDP reduction assay, with ATP as a positive effector in the presence of increasing amounts of Sml1 protein (FIG. 9). A molar ratio of 1:1 between Rnr1p monomer (MW 100000) and Sml1p (MW 11800) gave about 50% inhibition.
Inhibition of yeast ribonucleotide reductase by nonapeptides corresponding to the C-terminal ends of Sml1p, Rnr2p or Rnr4p. […] Since such peptides are known to inhibit RNR activity by binding to the R1 protein and preventing R1/R2 interaction, we wanted to study the influence of a C-terminal nonapeptide of Sml1p on yeast RNR activity.

| Molecule | koff [1] | kon [1] | efficiency in inhibiting yeast RNR activity relative to the Sml1p C terminal nonapeptide, molar basis [2] | efficiency in inhibiting yeast RNR activity relative to its C terminal nonapeptide, on a molar basis (yeast RNR) | type of inhibition versus Rnr2p/Rnr4p heterodimer (yeast RNR; Rnr2p/Rnr4p 1 to 32 μg, Rnr1p 2 μg, Sml1p 0, 0.2 and 2 μg) | inhibition of yeast RNR (yeast RNR; molar ratio of 1:1 between Rnr1p monomer and Sml1p, CDP reduction, ATP as positive effector) |
| --- | --- | --- | --- | --- | --- | --- |
| Recombinant yeast Sml1 protein (other, Immobilized on the BIAcore chip in the biosensor experiments; also called YML058W product) MQNSQDYFYAQNRCQQQQAPSTLRTVTMAEFRRVPLPPMAEVPMLSTQNSMGSSASASASSLEMWEKDLEERLNSIDHDMNNNKFGSGELKSMFNQGKVEEMDF | 0.04 s⁻¹ | ~153000 M⁻¹ s⁻¹ | ~200 times |  |  |  |
| Sml1p: 104 amino acid yeast protein encoded by YML058w (SML1) that binds Rnr1 and inhibits ribonucleotide reductase; recombinant, expressed in E. coli (protein) MQNSQDYFYAQNRCQQQQAPSTLRTVTMAEFRRVPLPPMAEVPMLSTQNSMGSSASASASSLEMWEKDLEERLNSIDHDMNNNKFGSGELKSMFNQGKVEEMDF |  |  |  | about 200 times | noncompetitive inhibition | about 50% |
